This note sets out measurements from PMC2667941.

For series [1], the target named is T1, human alpha-thrombin (Homo sapiens, UniProt P00734;P00734 328-363;364-622). Put plainly: gel filtration chromatography.
The target of series [2] is T1, human alpha-thrombin. Put plainly: gel filtration chromatography. The source holds these as a separate data set.

Like-named read-outs stand apart in the source and are kept apart here.

B1: ps-po-X on CdTe (same sequence as ps-po) (ssDNA)
DNA: TCCGCTGCAGAAAAATCGGGCGTAC
modifications: 9 phosphorothioate linkages, between the last 10 nt (T*C*G*G*G*C*G*T*A*C); rest phosphodiester
Take B1: the binding result in series [1] is recorded as “no binding”.

B2: ps-po-TBA on CdTe (structured_DNA)
DNA: GGTTGGTGTGGTTGGAAAAATCGGGCGTAC
modifications: 9 phosphorothioate linkages, between the last 10 nt (T*C*G*G*G*C*G*T*A*C); rest phosphodiester
Take B2: in series [2], the binding result was “binds”.
